According to patent US20160333101A1 (GENOR BIOPHARMA, published 2016):
Substitutions are numbered along the chain they refer to.

T1: RANK on RAW264.7 cells (mouse (RAW264.7 cells), UniProt O35305 31-625)
T1 sequence (looked up): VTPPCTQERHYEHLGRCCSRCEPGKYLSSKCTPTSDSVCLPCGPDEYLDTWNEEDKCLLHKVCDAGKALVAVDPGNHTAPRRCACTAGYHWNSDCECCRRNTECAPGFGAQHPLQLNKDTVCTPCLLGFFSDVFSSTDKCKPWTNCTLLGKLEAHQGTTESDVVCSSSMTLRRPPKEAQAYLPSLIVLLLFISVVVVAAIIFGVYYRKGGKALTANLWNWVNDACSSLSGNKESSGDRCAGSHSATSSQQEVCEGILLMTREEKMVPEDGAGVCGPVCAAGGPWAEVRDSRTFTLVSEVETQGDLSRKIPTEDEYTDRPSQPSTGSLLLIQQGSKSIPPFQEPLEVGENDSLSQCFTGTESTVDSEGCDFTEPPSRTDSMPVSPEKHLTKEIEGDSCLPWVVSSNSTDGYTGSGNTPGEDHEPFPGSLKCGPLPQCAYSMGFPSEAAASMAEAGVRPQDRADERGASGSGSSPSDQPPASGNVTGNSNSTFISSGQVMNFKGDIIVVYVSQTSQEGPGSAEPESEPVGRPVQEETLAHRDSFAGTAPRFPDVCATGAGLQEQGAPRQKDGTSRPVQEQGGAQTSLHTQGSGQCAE

B1: RANK-Fc (Fc fusion)
chain: IAPPCTSEKHYEHLGRCCNKCEPGKYMSSKCTTTSDSVCLPCGPDEYLDSWNEEDKCLLHKVCDTGKALVAVVAGNSTTPRRCACTAGYHWSQDCECCRRNTECAPGLGAQHPLQLNKDTVCKPCLAGYFSDAFSSTDKCRPWTNCTFLGKRVEHHGTEKSDAVCSSSLPARKPPNEPHVYLP
notes: Bought from R & D Systems; also called receptor RANK-Fc; not shown: Human IgG Fc part and any linker of the bought R & D Systems RANK-Fc
B2: recombinant human RANKL (ligand)
chain: HHHHHHHHHHGSQHIRAEKAMVDGSWLDLAKRSKLEAQPFAHLTINATDIPSGSHKVSLSSWYHDRGWAKISNMTFSNGKLIVNQDGFYYLYANICFRHHETSGDLATEYLQLMVYVTKTSIKIPSSHTLMKGGSTKYWSGNSEFHFYSINVGGFFKLRSGEEISIEVSNPSLLDPDQDATYFGAFKVRDID
B3: G8 (antibody, human IgG2, kappa, V domains shown)
VH: QVQLVQSGAELVQPGASVKLSCKASGYTFTTYWLQWVRQTPGQGLEWMGAIYPGPGNTKYTQKFKDRVTITADTSTSTAYMQLNSLRSEDSAVYYCARRGSRRGIAYWGQGTLVTVSA
VL: NIVLTQSPASLSVSLGQRATISCRASESVDSYGRSFMHWYQQRPGQAPKLLIYLASNLESGVPARFSGSGSRTDFTLTISSVEAEDEATYYCQQDNEDPYTFGGGTKLEIKG
B4: G14 (antibody, human IgG2, kappa, V domains shown)
VH: B3 VH with L11V, V12K, Q13K, L20V, T40A, T74E, Q82E, N84S, S91T
VL: DIVMTQSPDSLAVSLGERATINCRASESVDSYGRSFMHWYQQKPGQAPRLLIYLASNLESGVPSRFSGSGSGTDFTLTINSLEAEDAATYYCQQDNEDPYTFGGGTKLEIKG
B5: G15 (antibody, human IgG2, kappa, V domains shown)
VH: B3 VH with L11V, V12K, Q13K, L20V, T40A, T74E, Q82E, N84S, S91T
VL: B3 VL with K49R
B6: pFL249-H16u (scFv)
scFv: QVQLVQSGAELKKPGASVKLSCKASGYTFTTYWLQWVRQAPGQGLEWMGAIYPGPGNTKYTQKFKDRFTITADTSKSTAYMQLNSLKSEDSAVYYCARRGSRRGIAYWGQGTLVTVSAASSGGGGSGGGGSGGGGSSNIVLTQSPASLAVSLGQRATISCRASESVDSYGRSFMHWYQQRPGQPPTLLIYLASNLESGVPVRFSGSGSRTDFTLTIDPVEADDAATYYCQQDNEDPYTFGGGTKLEIK
notes: scFv in IPTG-induced E. coli supernatant, screened by ELISA; also called H16u scFv clone of the VH library; not shown: c-myc tag and his tag of vector pFL249
B7: pFL249-H16 (scFv)
scFv: B6 scFv with T74K
notes: scFv in IPTG-induced E. coli supernatant, screened by ELISA; also called H16 scFv clone of the VH library; not shown: c-myc tag and his tag of vector pFL249
B8: pFL249-H114 (scFv)
scFv: B6 scFv with K12V, K13Q, A40T, F68V, K76T, K87R
notes: scFv in IPTG-induced E. coli supernatant, screened by ELISA; also called H114 scFv clone of the VH library; not shown: c-myc tag and his tag of vector pFL249
B9: commercial hRANKL standard (ligand, human, UniProt O14788 140-317, looked up)
chain: IRAEKAMVDGSWLDLAKRSKLEAQPFAHLTINATDIPSGSHKVSLSSWYHDRGWAKISNMTFSNGKLIVNQDGFYYLYANICFRHHETSGDLATEYLQLMVYVTKTSIKIPSSHTLMKGGSTKYWSGNSEFHFYSINVGGFFKLRSGEEISIEVSNPSLLDPDQDATYFGAFKVRDID

Tests used:
[1] = molecular target: B9; assay: ELISA, coated commercial hRANKL standard, RANK-Fc titrated, anti-human IgG-Fc
Experimental: (§1) The samples are diluted to 1 μg/ml, was added 100 and incubated overnight at 4° C. RANK-Fc gradient diluted from 10 μg/ml is added, 1:20,000 dilution of secondary antibody (goat anti-human IgG-Fc) is added, the sample is incubated for 1 hour at room temperature, is colored using TMB chromogenic color system. Absorbance value to each well of the 96-well plate is measured on the multifunction microplate reader with a measurement wavelength of 450 nm, a reference wavelength of 630 nm, absorbance value to each well (OD)=OD450 nm-OD630 nm.

recombinant human RANKL [2] = molecular target: B2; assay: ELISA, coated recombinant human RANKL, RANK-Fc titrated, anti-human IgG-Fc
Experimental: as §1

RANK on RAW264.7 cells = molecular target: T1, RANK on RAW264.7 cells; assay: cell-based or functional assay
recombinant human RANKL [3] = molecular target: B2; assay: cell-based or functional assay
recombinant human RANKL [4] = molecular target: B2; assay: cell-based or functional assay; remark: listed apart in the source
recombinant human RANKL [5] = molecular target: B2; assay: ELISA, scFv supernatant on coated hRANKL, anti-c-myc-HRP; threshold of the clones sent for sequencing
Experimental: The plates are washed three times with PBST (containing 0.05% Tween 20). The plates are closed with blocking solution (PBS solution containing 2% (WN) of BSA) for 1˜1.5 hours at room temperature. […] The closed microtiter plate is incubated for 2 hours at room temperature, washed three times with PBST. […] After the microtiter plate is washed six times with PBST, TMB substrate (purchased from Cell Signaling Technology, Cat. NO.7004) is added, and the samples are colored at room temperature for 10 minutes, 50 μl 2 M HCl is added in each well to terminate the color, and OD450 nm reading is detected using the M5 equipment.
If OD450>0.4, it is considered as a positive coloration.

IC50 for inhibiting hRANKL induced RAW264.7 cell differentiation (recombinant human RANKL [3])	OD450 (recombinant human RANKL [5])	Binder	also measured
		B1	EC50 [1]: 0.0056 µg/mL; EC50 (recombinant human RANKL [2]): 0.0109 µg/mL
		B2	EC50 of inducing RAW264.7 cells to be differentiated into osteoclasts (tartrate-resistant acid phosphatase, pNPP) (RANK on RAW264.7 cells): 113 ng/ml
0.329 µg/mL		B3	IC50 (ng/ml) in RAW264.7 cells, osteoclast differentiation induced by RANKL (recombinant human RANKL [4]): ~573 ng/mL
0.247 µg/mL		B4	IC50 (ng/ml) in RAW264.7 cells, osteoclast differentiation induced by RANKL (recombinant human RANKL [4]): ~517 ng/mL
0.257 µg/mL		B5	
	1.2	B6	
	1.2	B7	
	1.2	B8	
		B9	EC50 of inducing RAW264.7 cells to be differentiated into osteoclasts (tartrate-resistant acid phosphatase, pNPP) (RANK on RAW264.7 cells): 35.7 ng/ml
